From article PMC3323580, “Lack of Evidence from Studies of Soluble Protein Fragments that Knops Blood Group Polymorphisms in Complement Receptor-Type 1 Are Driven by Malaria” (PLoS ONE, 2012)

Target: T1, C1q, classical complement pathway protein (UniProt P02745 23-245; P02746 28-253; P02747 29-245)
T1 construct: Amine-coupled to a CM5 chip for SPR; in solution (140 ng/ml) for ELISA; source: bought: Complement Technology (Texas)
Assay: SPR; C3b (1620 RU), C4b (1518 RU) and C1q (2125 RU) amine-coupled on three flow cells of one CM5 chip; CR1 fragments flowed at 30 µl/min, Biacore T100, 25°C, HBS-EP pH 7.4 (10 mM Hepes, 150 mM saline, 3 mM EDTA, 0.05% polysorbate 20); steady-state fit, one-to-one model; duplicates
Settings: both partners purified

T1 sequence (P02745 23-245, chain 1 of 3): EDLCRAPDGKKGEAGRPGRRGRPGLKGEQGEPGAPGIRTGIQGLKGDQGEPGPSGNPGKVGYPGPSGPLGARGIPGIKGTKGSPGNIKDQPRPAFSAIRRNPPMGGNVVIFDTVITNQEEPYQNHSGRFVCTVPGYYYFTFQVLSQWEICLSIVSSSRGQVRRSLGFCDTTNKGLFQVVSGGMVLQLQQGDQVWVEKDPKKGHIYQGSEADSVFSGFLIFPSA
T1 sequence (P02746 28-253, chain 2 of 3): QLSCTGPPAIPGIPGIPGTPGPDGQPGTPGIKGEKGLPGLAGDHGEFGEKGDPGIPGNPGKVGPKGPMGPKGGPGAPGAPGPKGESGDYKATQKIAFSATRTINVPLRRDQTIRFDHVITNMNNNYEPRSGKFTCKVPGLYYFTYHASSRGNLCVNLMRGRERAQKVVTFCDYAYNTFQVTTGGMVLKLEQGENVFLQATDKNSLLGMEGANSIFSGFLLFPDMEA
T1 sequence (P02747 29-245, chain 3 of 3): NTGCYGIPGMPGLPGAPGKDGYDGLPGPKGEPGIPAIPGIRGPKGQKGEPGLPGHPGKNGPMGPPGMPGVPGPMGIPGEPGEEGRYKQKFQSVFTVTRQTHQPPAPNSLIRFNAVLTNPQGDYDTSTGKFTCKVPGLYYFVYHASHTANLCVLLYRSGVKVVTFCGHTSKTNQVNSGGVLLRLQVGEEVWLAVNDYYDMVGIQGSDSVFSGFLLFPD

B1: soluble CR1 (sCR1), full-length ectodomain of complement receptor-type 1 (receptor)
chain: not shown
notes: complement receptor-type 1 (CR1, CD35), human, soluble full-length ectodomain; also called full-length sCR1; source: a gift from Henry Marsh, Celdex Pharmaceuticals
**Q.** Which Kd does the source give for B1 here?
**A.** The Kd was 8 ± 1 µM.
